Reference: patent US20110112279A1 (published 2011)

Legend:
[1] = target: T1, human STOP-1 short form (L94-K243) with C-terminal His tag, baculovirus expressed (UniProt Q96CG8 94-243); assay: competitive ELISA
[2] = target: T2, human STOP-1, full length, C-terminal 8xHis tag (h762HIP; M1-K243-His), expressed in CHO-psgb cells (UniProt Q96CG8 31-243); assay: competitive ELISA
[3] = target: T2, human STOP-1, full length, C-terminal …; assay: competitive ELISA; F/F: coated full length, competed full length
[4] = target: T1, human STOP-1 short form (L94-K243) with …; assay: competitive ELISA; S/S: coated short form, competed short form

T2 sequence (Q96CG8 other isoform, or with tags, fused parts or gaps): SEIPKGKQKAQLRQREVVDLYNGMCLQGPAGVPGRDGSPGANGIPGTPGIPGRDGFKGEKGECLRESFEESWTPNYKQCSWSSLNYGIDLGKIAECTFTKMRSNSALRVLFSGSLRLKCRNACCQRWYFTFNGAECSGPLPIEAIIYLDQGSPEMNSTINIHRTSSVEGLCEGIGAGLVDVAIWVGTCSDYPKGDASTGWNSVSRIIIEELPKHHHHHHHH
T1 sequence (Q96CG8 94-243): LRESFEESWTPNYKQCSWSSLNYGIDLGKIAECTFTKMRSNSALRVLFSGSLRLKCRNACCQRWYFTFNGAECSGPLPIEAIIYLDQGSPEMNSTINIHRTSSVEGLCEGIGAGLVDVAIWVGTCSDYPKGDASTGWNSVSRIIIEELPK

| Binder | Kd [1] [nM] | Kd [2] [nM] | Kd [3] [nM] | Kd [4] [nM] |
| --- | --- | --- | --- | --- |
| S7 IgG (full-length human IgG1; LPG3-humankappaG6 and LPG4-humanHC-S7), expressed in CHO cells (antibody, V domains shown) VH: EVQLVESGGGLVQPGGSLRLSCAASGFTISGSDIHWVRQAPGKGLEWVGRISPYGGNTNYADSVKGRFTISADTSKNTAYLQMNSLRAEDTAVYYCARVGGLKLLFDYWGQGTLVTVSS VL: DIQMTQSPSSLSASVGDRVTITCRASQDVSTAVAWYQQKPGKAPKLLIYSASFLYSGVPSRFSGSGSGTDFTLTISSLQPEDFATYYCQQSYTTPPTFGQGTKVEIKR | 7.3 | 41 | 41 | 7.3 |
| S4 Fab (antibody) chain 1: MKKNIAFLLASMFVFSIATNAYADIQMTQSPSSLSASVGDRVTITCRASQDVSTAVAWYQQKPGKAPKLLIYSASFLYSGVPSRFSGSGSGTDFTLTISSLQPEDFATYYCQQSYTTPPTFGQGTKVEIKRTVAAPSVFIFPPSDEQLKSGTASVVCLLNNFYPREAKVQWKVDNALQSGNSQESVTEQDSKDSTYSLSSTLTLSKADYEKHKVYACEVTHQGLSSPVTKSFNRGECGASSGMADPNRFRGKDLA chain 2: MKKNIAFLLASMFVFSIATNAYAEVQLVESGGGLVQPGGSLRLSCAASGFTISGSWIHWVRQAPGKGLEWVAWIAPYSGATDYADSVKGRFTISADTSKNTAYLQMNSLRAEDTAVYYCAREGGLYWVFDYWGQGTLVTVSSASTKGPSVFPLAPSSKSTSGGTAALGCLVKDYFPEPVTVSWNSGALTSGVHTFPAVLQSSGLYSLSSVVTVPSSSLGTQTYICNVNHKPSNTKVDKKVEPKSCDKTHL | 1.9 | 13 | 13.4 |  |
| S4 IgG (full-length human IgG1; LPG3-humankappaG6 and LPG4-humanHC-S4), expressed in CHO cells (antibody) light: DIQMTQSPSSLSASVGDRVTITCRASQDVSTAVAWYQQKPGKAPKLLIYSASFLYSGVPSRFSGSGSGTDFTLTISSLQPEDFATYYCQQSYTTPPTFGQGTKVEIKRTVAAPSVFIFPPSDEQLKSGTASVVCLLNNFYPREAKVQWKVDNALQSGNSQESVTEQDSKDSTYSLSSTLTLSKADYEKHKVYACEVTHQGLSSPVTKSFNRGEC heavy: not shown | 0.5 | 3 | 3.1 | 0.5 |
